Results: the supplement of paper PMC10724198
± gives the standard deviation of the averaged measurements.

tested on: Saccharomyces cerevisiae; assay: protein stability index of tFT-peptide fusion (C-terminal peptide) (PSI (0-1 scale)); higher = more stable (slower turnover); conditions: genetic background: wild type; temperature: 30 C
Protocol: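 Multiplexed protein stability (MPS) profiling in S. cerevisiae. Random 12-aa peptides (tFT-X12 library) are fused to the C-terminus of a sfGFP-mCherry tandem fluorescent timer, after mCherry and a GGGS linker. Cells are FACS-sorted into 8 mCherry/sfGFP bins and deep-sequenced. The protein stability index (PSI) is the read-weighted bin average, scaled from 0 (unstable) to 1 (stable). Only peptides with >10 reads are reported; cells were grown at 30 °C in SC-His with glucose.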
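Note: PSI is a weighted mean of sequencing reads over stability bins, variants kept only with over 10 reads, mCherry proximal and sfGFP distal, peptide attached via GGGS linker.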

Point of comparison: APLLTRRLPTAH, protein stability index 0.785 ± 0.025. Against it:
- AAAWWGPRNRGL — lower, 0.6749 ± 0.0056
- AAGLNSWLRERW — within error, 0.805 ± 0.032
- AAIQNRPIQSNP — lower, 0.672 ± 0.027
- AALLQAGMPRTR — lower, 0.692 ± 0.013
- AAPPHLTSHPPL — within error, 0.811 ± 0.19
- AARRVARTTSFC — lower, 0.6728 ± 0.0019
- AARSCRCSSLIG — within error, 0.774 ± 0.0035
- AAVRCVAEGGAP — lower, 0.637 ± 0.036
- ACDVPSERAVSG — lower, 0.628 ± 0.024
- ACFFNCFISLPF — lower, 0.584 ± 0.048
- ACGDRGGLCSEG — lower, 0.616 ± 0.066
- ADCLSCRVLIVM — lower, 0.484 ± 0.075
- ADGLSRDKALIV — lower, 0.598 ± 0.0074
- ADLAFAGGPYYG — lower, 0.69 ± 0.067
- ADMTRSRYMGRS — lower, 0.692 ± 0.033
- ADQAPVLTVWLP — lower, 0.669 ± 0.023
- AELALGIESYLP — within error, 0.683 ± 0.083
- AEMGQDGADAGQ — lower, 0.676 ± 0.01
- AEPSERSRNSPP — lower, 0.68 ± 0.019
- AEVRRQEGTVGV — lower, 0.707 ± 0.036
- AEYSTAYRLGIC — lower, 0.644 ± 0.1
- AFCLLSSLASGF — within error, 0.759 ± 0.067
- AFHTLSGFRRVP — lower, 0.673 ± 0.019
- AFLMPFPSRLCV — lower, 0.5806 ± 0.0052
- AFPGCRPFRPLH — within error, 0.709 ± 0.056
- AFPHDYCRFFLP — lower, 0.612 ± 0.048
- AFPHRLTRGYDQ — lower, 0.666 ± 0.038
- AFPSISNEVVSV — lower, 0.707 ± 0.017
- AFRCGGVPGDFA — lower, 0.664 ± 0.022
- AFSASLAGSGRS — within error, 0.736 ± 0.046
- AFSGMMSVFREW — lower, 0.695 ± 0.049
- AGAFVGAPVGGE — lower, 0.713 ± 0.026
- AGALFRLPSVFD — within error, 0.727 ± 0.076
- AGASCGGRPDTA — lower, 0.607 ± 0.02
- AGCGGIWGLWVL — within error, 0.723 ± 0.05
- AGCGGRCEAGDR — lower, 0.67 ± 0.011
- AGFGVGALSRSG — lower, 0.673 ± 0.041
- AGGAAIVERAMK — lower, 0.6857 ± 0.003
- AGGDDGAPGTQS — lower, 0.644 ± 0.015
- AGGGPDGFIRPM — lower, 0.701 ± 0.014
- AGGKGVGRGWGL — lower, 0.698 ± 0.051
- AGGLGSGGSRER — lower, 0.6612 ± 0.0024
- AGGSVFSVLVDE — lower, 0.665 ± 0.0081
- AGGWLRGWLGVG — lower, 0.673 ± 0.047
- AGGWRGAEGCGG — within error, 0.782 ± 0.083
- AGQNVWGAGTNE — lower, 0.712 ± 0.0079
- AGRGGRAGGGWR — lower, 0.668 ± 0.015
- AGRSCGRHEPPK — lower, 0.579 ± 0.098
- AGRVCTRGVNEI — within error, 0.786 ± 0.1
- AGSAAGGAWSGG — lower, 0.695 ± 0.019
- AGSLFEVECNGS — within error, 0.746 ± 0.038
- AGSSIPLPASRA — lower, 0.705 ± 0.026
- AGSVIPCPASRP — lower, 0.695 ± 0.029
- AHADISPIHNLH — lower, 0.627 ± 0.0066
- AHGASLCVPPSP — lower, 0.512 ± 0.013
- AHKSFRMVDGNR — lower, 0.678 ± 0.066
- AHLLFGFGAPVS — within error, 0.714 ± 0.15
- AHPLSVSSFLSF — lower, 0.671 ± 0.0073
- AHPPPPQLPHPH — lower, 0.7241 ± 0.0023
- AHWFMPVSCLLV — within error, 0.838 ± 0.2
- AIDGVREDTSVE — within error, 0.704 ± 0.18
- AIEKKVNQTPFK — lower, 0.659 ± 0.034
- AIERCCTSRRRR — lower, 0.701 ± 0.041
- AIGSVWACVCCS — lower, 0.504 ± 0.095
- AIKTVINYRDMM — lower, 0.608 ± 0.0024
- AIRTPPTRTPPA — lower, 0.71 ± 0.049
- AISSPVLSYATP — lower, 0.657 ± 0.0035
- AKACHGGSTLPG — lower, 0.609 ± 0.045
- AKKKKKTKRRKK — within error, 0.692 ± 0.07
- AKLQQEIVWALD — within error, 0.779 ± 0.048
- AKVKIENKHRRK — lower, 0.716 ± 0.015
- AKWAWPAIVGGC — within error, 0.722 ± 0.053
- ALASPGLLVFTR — lower, 0.673 ± 0.026
- ALCGWYMGLFHL — lower, 0.646 ± 0.0042
- ALFEDWRIGVFS — lower, 0.71 ± 0.036
- ALFPPPSLRPLP — within error, 0.724 ± 0.054
- ALFTVGNRPSSL — lower, 0.701 ± 0.021
- ALGVHGKFEWIK — lower, 0.668 ± 0.066
- ALHPPSPPPPAP — lower, 0.7313 ± 0.0027
- ALIGMFATVALI — within error, 0.689 ± 0.099
- ALMHVTLAVGLL — lower, 0.579 ± 0.0027
- ALPPPPPHPSPS — lower, 0.717 ± 0.019
- ALPYPPRFPHCS — lower, 0.645 ± 0.019
- ALRCRPVYHIDG — lower, 0.658 ± 0.025
- ALRRWWCRGGRI — within error, 0.813 ± 0.024
- ALRSGGAARVRL — within error, 0.7776 ± 0.0071
- ALSHGPAPRTRS — lower, 0.649 ± 0.048
- ALSLPPRLRTFY — lower, 0.663 ± 0.05
- ALSRSCPSGAFL — lower, 0.727 ± 0.01
- AMLLRCRQGDLI — lower, 0.675 ± 0.032
- AMVATAYINPHE — lower, 0.712 ± 0.037
- ANELQEIYLGET — lower, 0.6881 ± 0.006
- ANGTLSGSPAPS — lower, 0.641 ± 0.021
- ANKNDHNNQRQA — within error, 0.789 ± 0.09
- ANVRTCCTSVPV — lower, 0.652 ± 0.037
- APAPELRRSPTP — lower, 0.707 ± 0.01
- APAPPPGVPPSR — lower, 0.702 ± 0.002
- APASPSFPLSAP — lower, 0.673 ± 0.025
- APCLLNTLRPSP — lower, 0.686 ± 0.033
- APEAHYRGCPPH — lower, 0.681 ± 0.018
- APFPPHPPPPPS — lower, 0.707 ± 0.043
- APFSALFPANSV — within error, 0.719 ± 0.15
- APGPCSAPSCGA — lower, 0.67 ± 0.013
- APGPPPLPHPPT — lower, 0.717 ± 0.022
- APILFRICVRRL — lower, 0.541 ± 0.046
- APIRPPVPPASP — lower, 0.716 ± 0.035
- APLFLPPPSLFF — lower, 0.6934 ± 0.0052
- APLTYFKPPTPT — within error, 0.666 ± 0.11
- APPLQLSSPPPS — within error, 0.746 ± 0.051
- APPPAAPALSPR — within error, 0.718 ± 0.096
- APPPAYCPPPPP — lower, 0.713 ± 0.022
- APPPPPALPEYQ — lower, 0.685 ± 0.047
- APPPPPDHPFPP — within error, 0.691 ± 0.08
- APPPPPPPCAPS — lower, 0.657 ± 0.043
- APPPPPSPRRPL — lower, 0.708 ± 0.013
- APPPPPSRLFPP — lower, 0.672 ± 0.028
- APPPPRPLLPSL — within error, 0.723 ± 0.047
- APPPRLAPTLSS — within error, 0.775 ± 0.014
- APPPSPPPPPFP — lower, 0.67 ± 0.064
- APPPVFLPPPPP — within error, 0.778 ± 0.039
- APPSPPPPTSHP — within error, 0.777 ± 0.051
- APPSPRPSRPSP — lower, 0.64 ± 0.029
- APRLFSPPEPPT — lower, 0.702 ± 0.038
- APRLIALPPPTA — within error, 0.711 ± 0.11
- APRPLPPPPSPC — lower, 0.726 ± 0.027
- APRTRPSPTLGT — lower, 0.724 ± 0.029
- APSCRVPPLPPP — lower, 0.708 ± 0.046
- APSELSSRPFLL — lower, 0.707 ± 0.026
- APSFSSPPVPLF — lower, 0.698 ± 0.0085
- APSRTPRQPPSH — within error, 0.716 ± 0.067
- APTPPPRISAWL — lower, 0.687 ± 0.019
- APTVPVPPSPDA — within error, 0.705 ± 0.077
- APVRSSIALKSD — lower, 0.703 ± 0.035
- APVWSINKTRVM — lower, 0.671 ± 0.045
- AQSRTCPMPLPA — lower, 0.719 ± 0.025
- AQTHGGSSLPRP — lower, 0.688 ± 0.028
- ARAAHLASRGLP — lower, 0.689 ± 0.037
- ARCLSFPSSSSA — lower, 0.654 ± 0.022
- ARESGFGGVLEE — lower, 0.674 ± 0.028
- ARFSPTLQLTPT — within error, 0.844 ± 0.13
- ARGCRRWRVLRR — within error, 0.77 ± 0.25
- ARGGIGTCSWGW — within error, 0.743 ± 0.074
- ARGSTGLKLRWG — lower, 0.706 ± 0.0096
- ARIALGLSALVL — lower, 0.641 ± 0.05
- ARIRDSPVIKTV — lower, 0.672 ± 0.019
- ARLAYESSPLPR — lower, 0.7185 ± 0.0056
- ARNDAGKRERVT — lower, 0.696 ± 0.016
- ARNKKKDLREIK — within error, 0.761 ± 0.054
- ARPCPRPHVPST — lower, 0.706 ± 0.043
- ARPFLWDFCLGR — lower, 0.681 ± 0.028
- ARPGAWAPTEVD — lower, 0.737 ± 0.0099
- ARPLHSIGPAII — lower, 0.658 ± 0.0089
- ARPPTPLRKGAP — lower, 0.673 ± 0.017
- ARPSRPPPPSPP — lower, 0.662 ± 0.018
